Source: patent publication US20150284431A1 (H LEE MOFFITT CANCER CENTER AND RESEARCH INSTITUTE, published 2015)
Square brackets hold non-standard residues; d marks the D form. Primed or numbered codes have the meaning given here. Side chains are listed from the residue outwards. * marks the point of attachment. Butanoyl(4-Ph) = O=C(CCCc1ccccc1)*; IR800CW″ = IRDye800CW maleimide; Mpa = O=C(O)CCS

Target: MC5R expressed in the kidneys (of the xenograft-bearing mice)
Assay: cell-based or functional assay

MC5R expressed in the kidneys (of the xenograft-bearing mice), sequence (P41149 whole entry): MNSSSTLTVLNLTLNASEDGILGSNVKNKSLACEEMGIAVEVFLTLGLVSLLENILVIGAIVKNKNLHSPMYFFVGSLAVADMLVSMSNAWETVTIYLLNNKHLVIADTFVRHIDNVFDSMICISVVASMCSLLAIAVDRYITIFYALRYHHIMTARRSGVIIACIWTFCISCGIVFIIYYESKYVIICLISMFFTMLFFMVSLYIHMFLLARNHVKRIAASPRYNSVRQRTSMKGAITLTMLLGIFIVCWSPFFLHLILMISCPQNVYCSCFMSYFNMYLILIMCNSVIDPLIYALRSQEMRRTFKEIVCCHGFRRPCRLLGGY

{Butanoyl(4-Ph)}-H[dF]RWGK([Mpa-IR800CW″])-NH2 [4-phenylbutyryl-His-DPhe-Arg-Trp-Gly-Lys(Mpr-IR800CW)-NH2] was tested, and the “fold decrease in renal uptake of MC1RL-800 at 2 hr, with co-injection of 1 nmol/kg MC4R/5R compound (SEQ ID NO:10), compared to control animals” value was 1.56 fold.
